This note sets out measurements from patent publication US7628975B2, “Compositions and methods for detecting and quantifying COX-2 activity and 2-arachidonylgycerol metabolites” (Vanderbilt University, priority 2000, dated 2009).

Data set [1] concerns the target T1, COX-2 (Homo sapiens, UniProt P35354).
T1 sequence (P35354 18-604): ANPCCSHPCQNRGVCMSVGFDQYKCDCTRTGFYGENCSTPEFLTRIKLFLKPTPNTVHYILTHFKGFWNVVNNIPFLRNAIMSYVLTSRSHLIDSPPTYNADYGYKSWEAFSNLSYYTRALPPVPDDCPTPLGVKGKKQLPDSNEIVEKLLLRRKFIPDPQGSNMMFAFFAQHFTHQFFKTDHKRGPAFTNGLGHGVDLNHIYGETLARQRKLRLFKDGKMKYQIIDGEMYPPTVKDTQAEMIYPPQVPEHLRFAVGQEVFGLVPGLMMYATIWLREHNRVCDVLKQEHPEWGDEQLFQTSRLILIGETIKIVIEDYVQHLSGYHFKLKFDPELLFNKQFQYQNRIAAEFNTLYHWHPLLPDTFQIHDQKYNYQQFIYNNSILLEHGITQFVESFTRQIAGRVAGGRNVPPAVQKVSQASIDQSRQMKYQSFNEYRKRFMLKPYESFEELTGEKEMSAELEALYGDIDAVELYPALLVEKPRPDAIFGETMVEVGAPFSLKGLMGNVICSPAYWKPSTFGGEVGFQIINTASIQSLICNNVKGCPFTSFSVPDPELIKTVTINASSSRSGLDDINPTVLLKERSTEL
Briefly: HPLC/UV quantification of products in base-treated COX-2/2-AG incubation mixtures. It is filed as biochemical. The settings on record: COX-2 oxygenation of 2-AG, n=5. On the procedure: Estimates of relative amounts of the individual PG-Gs can be made by reversed-phase HPLC with UV detection. […] Quantification of PGE2-G and HETE-Gs is accomplished by HPLC/UV analysis of base-treated COX-2/2-AG incubation mixtures using 5-HETE as an internal standard. PGE2-G is the major product of oxygenation (PGE2-G/HETE-G=4.0±0.1, n=5) and 11-HETE-G is more abundant than 15-HETE-G (11-HETE-G/15-HETE-G=3.4±0.1, n=5). HETE-G regiochemistry is confirmed by mass spectrometry of saponified, HPLC-purified HETE products.

The subject of data set [2] is RAW264.7 cells. Briefly: Exogenous 2-AG metabolism to PGD2-G by RAW264.7 cells (LC/MS). It is filed as cell-based, murine. The settings on record: inhibitor 3 μM, activated RAW264.7 cells, 2-AG 20 μM.
For data set [3] the following is noted: buffer.
Substrate in data set [4]: CCCCC/C=C\C/C=C\C/C=C\C/C=C\CCCC(=O)O
Briefly: Steady-state kinetics of COX-2 mediated oxygenation (O2 uptake), murine enzyme. The following applies: other: mCOX-2, substrate oxygenation. It is filed as biochemical. The protocol: (§1) The ability of COX-1 and COX-2 to metabolize different substrates, such as 2-AG and arachidonic acid (AA) can be determined, for example, by measuring relative oxygen uptake. FIG. 9 is a representative oxygen uptake curve for 100 μM 2-AG or AA treated with 150 nM purified COX-2 or 150 nM ovine COX-1. The horizontal bar represents 20-seconds. The vertical bar represents 10 μM O2 uptake.

Substrate in data set [5]: CCCCC/C=C\C/C=C\C/C=C\C/C=C\CCCCOC(CO)CO
Described as above. It is filed as biochemical. The settings on record: other: mCOX-2, substrate oxygenation. On the procedure:
as §1

Substrate in data set [6]: CCCCC/C=C\C/C=C\C/C=C\C/C=C\CCCC(=O)O
Briefly: Steady-state kinetics of COX-2 mediated oxygenation (O2 uptake), human enzyme. Type of data set: biochemical. The settings on record: other: hCOX-2, substrate oxygenation. On the procedure:
as §1

Substrate in data set [7]: CCCCC/C=C\C/C=C\C/C=C\C/C=C\CCCCOC(CO)CO
Described as above. Type of data set: biochemical. The following applies: other: hCOX-2, substrate oxygenation. On the procedure:
as §1

Turning to `CCCCC[C@H](O)/C=C/[C@H]1[C@H](O)CC(=O)[C@@H]1C/C=C\CCCC(=O)OCC(O)CO` (some centres unmarked) [PGE2-G, prostaglandin E2-glycerol ester], the PGE2-G/HETE-G product ratio in data set [1] is reported as 4.0±0.1.
`COc1ccc2c(c1)c(CC(=O)NCCc1ccccc1)c(C)n2C(=O)c1ccc(Cl)cc1` [indomethacin phenethylamide, 2-[1-(4-chlorobenzoyl)-5-methoxy-2-methyl-1H-indol-3-yl]-N-phenethylacetamide]: in data set [2], the “Effect on PGD2-G biosynthesis” value is given as “inhibited”.
Same read-out and setting: to `COc1ccc2c(c1)c(CC(=O)O)c(C)n2C(=O)c1ccc(Cl)cc1` [indomethacin] belongs “inhibited”.
Consider `CCCCC[C@H](O)/C=C/[C@@H]1[C@@H](C/C=C\CCCC(=O)OC(CO)CO)[C@@H]2C[C@H]1OO2` [PGH2-G, prostaglandin H2-glycerol ester], for which the “half-life in aqueous solution” value in data set [3] is given as “approximately 20 seconds”.
On to `CCCCCC=CC=CC(O)CC=CCC=CCCCC(=O)OC(CO)CO` (centres unmarked) [11-HETE-G, 11-hydroxy-eicosatetranoic glycerol ester], for which, in data set [1], the 11-HETE-G/15-HETE-G product ratio is 3.4±0.1.

B1: mCOX-2 (Mus musculus) (protein)
chain: ANPCCSNPCQNRGECMSTGFDQYKCDCTRTGFYGENCTTPEFLTRIKLLLKPTPNTVHYILTHFKGVWNIVNNIPFLRSLIMKYVLTSRSYLIDSPPTYNVHYGYKSWEAFSNLSYYTRALPPVADDCPTPMGVKGNKELPDSKEVLEKVLLRREFIPDPQGSNMMFAFFAQHFTHQFFKTDHKRGPGFTRGLGHGVDLNHIYGETLDRQHKLRLFKDGKLKYQVIGGEVYPPTVKDTQVEMIYPPHIPENLQFAVGQEVFGLVPGLMMYATIWLREHNRVCDILKQEHPEWGDEQLFQTSRLILIGETIKIVIEDYVQHLSGYHFKLKFDPELLFNQQFQYQNRIASEFNTLYHWHPLLPDTFNIEDQEYSFKQFLYNNSILLEHGLTQFVESFTRQIAGRVAGGRNVPIAVQAVAKASIDQSREMKYQSLNEYRKRFSLKPYTSFEELTGEKEMAAELKALYSDIDVMELYPALLVEKPRPDAIFGETMVELGAPFSLKGLMGNPICSPQYWKPSTFGGEVGFKIINTASIQSLICNNVKGCPFTSFNVQDPQPTKTATINASASHSRLDDINPTVLIKRRSTEL
For the molecule B1, in data set [4], the Km (usually the substrate concentration at which the rate is half of its maximum) is 8.2 ± 1.6 µM; the kcat – broadly, the maximal rate divided by the concentration of active sites – amounted to 20.5 ± 1.6 s⁻¹; the kcat/Km – broadly, the turnover number divided by the Michaelis constant – was found to be 2.5e+06 M⁻¹ s⁻¹. For the same molecule, in data set [5], the Km stood at 4.7 ± 0.8 µM, the kcat was 11.1 ± 0.7 s⁻¹ and the kcat/Km turned out to be 2.3e+06 M⁻¹ s⁻¹.

B2: hCOX-2 (Homo sapiens) (protein)
chain: T1 sequence (P35354 18-604)
On to B2, for which, in data set [6], the Km turned out to be 6.1 ± 0.6 µM, the kcat was 14.7 ± 0.5 s⁻¹ and the kcat/Km worked out at 2.4e+06 M⁻¹ s⁻¹. For the same molecule, in data set [7], the Km was found to be 4.4 ± 0.9 µM, the catalytic constant (kcat) was determined as 17.4 ± 1.1 s⁻¹ and the kcat/Km is 4e+06 M⁻¹ s⁻¹.
